Publication PMC4125234

Molecular target: CMG2-Fc fusion protein (capillary morphogenesis protein 2 amino acids 1-225 fused to the Fc fragment of human IgG1) (human) (UniProt P58335)
Experiment: BLI

Chain of UniProt P58335 (P58335 34-225): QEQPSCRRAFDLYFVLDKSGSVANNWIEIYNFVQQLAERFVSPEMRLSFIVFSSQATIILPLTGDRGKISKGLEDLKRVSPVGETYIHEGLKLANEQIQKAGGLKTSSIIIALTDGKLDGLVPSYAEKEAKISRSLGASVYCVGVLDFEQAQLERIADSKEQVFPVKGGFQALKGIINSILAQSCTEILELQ

## protective antigen (PA) of anthrax toxin (natural protein)
  Kd: 0.84 nM
  koff: 9.7e-06 s⁻¹
  kon: 11500 M⁻¹ s⁻¹
